From PMC6053597, “Coupling of polymerase and carrier lipid phosphatase prevents product inhibition in peptidoglycan synthesis” (The Cell Surface, 2018)

Legend:
[1] = biological target: T1, PBP1B (Penicillin-binding protein 1B), untagged (E. coli, UniProt P02919 58-804); assay: cell-based or functional assay
T1 sequence: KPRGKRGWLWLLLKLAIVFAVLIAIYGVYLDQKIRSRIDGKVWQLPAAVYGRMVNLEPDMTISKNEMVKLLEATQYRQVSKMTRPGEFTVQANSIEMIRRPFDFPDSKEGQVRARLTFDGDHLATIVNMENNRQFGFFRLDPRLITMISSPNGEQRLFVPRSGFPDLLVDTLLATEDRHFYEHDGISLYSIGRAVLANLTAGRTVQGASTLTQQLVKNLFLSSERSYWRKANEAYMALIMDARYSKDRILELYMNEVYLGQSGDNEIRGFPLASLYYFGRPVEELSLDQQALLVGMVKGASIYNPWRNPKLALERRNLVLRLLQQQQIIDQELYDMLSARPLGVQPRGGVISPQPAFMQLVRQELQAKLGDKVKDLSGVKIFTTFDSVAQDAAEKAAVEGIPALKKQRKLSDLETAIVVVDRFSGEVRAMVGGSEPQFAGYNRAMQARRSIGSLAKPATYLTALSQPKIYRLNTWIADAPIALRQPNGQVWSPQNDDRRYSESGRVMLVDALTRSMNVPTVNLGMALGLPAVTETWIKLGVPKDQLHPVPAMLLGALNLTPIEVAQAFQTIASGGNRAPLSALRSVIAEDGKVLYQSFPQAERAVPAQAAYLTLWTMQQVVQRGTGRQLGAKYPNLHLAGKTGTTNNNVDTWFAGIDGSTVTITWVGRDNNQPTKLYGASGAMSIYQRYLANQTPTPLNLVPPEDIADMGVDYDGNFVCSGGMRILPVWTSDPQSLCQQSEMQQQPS

[2] = biological target: T1, PBP1B (Penicillin-binding protein 1B), …; assay: SPR; PBP1A or PBP1B covalently immobilised via their TPase active site on a sensor chip with bound ampicillin; PgpB-ht injected at 0.125-2 μM in 10 mM Tris/maleate pH 7.5, 150 mM NaCl, 5 mM imidazole, 5 mM β-mercaptoethanol, 0.05% DDM; 25 °C, 75 μL/min; equilibrium response fitted to a 1:1 model; apparent KD; settings: both partners purified

lipid II consumption by PBP1B in proteoliposomes of artificial lipids with PgpB at a 1:1 molar ratio, with LpoB(sol), TLC (PBP1B alone: less than 20%) [1]: 63% | Kd [2]: 1.05 µM
B1: PgpB-ht (C-terminal His6-tagged version of PgpB) (enzyme, E. coli)
chain: MRSIARRTAVGAALLLVMPVAVWISGWRWQPGEQSWLLKAAFWVTETVTQPWGVITHLILFGWFLWCLRFRIKAAFVLFAILAAAILVGQGVKSWIKDKVQEPRPFVIWLEKTHHIPVDEFYTLKRAERGNLVKEQLAEEKNIPQYLRSHWQKETGFAFPSGHTMFAASWALLAVGLLWPRRRTLTIAILLVWATGVMGSRLLLGMHWPRDLVVATLISWALVAVATWLAQRICGPLTPPAEENREIAQREQES
notes: PgpB, C55-PP pyrophosphatase (PAP2 family) of E. coli; amplified by PCR from genomic DNA of E. coli BW25113 and cloned into pET28a(+) (pET28a-pgpB); Purified according to Touzé et al., 2008a with modifications; also called oligohistidine tagged PgpB; source: E. coli C43(DE3), membrane fraction solubilised in DDM, purified (Ni-NTA); not shown: His6, C-terminal, kept
